This is an account of results in article PMC3565967, “Biochemical Similarities and Differences between the Catalytic [4Fe-4S] Cluster Containing Fumarases FumA and FumB from Escherichia coli” (PLoS ONE, 2013).

In one series the target is T1, FumB (Escherichia coli, UniProt P14407).
T1 construct: full length, N-terminal His-tag (pET15b, gene from plasmid pGS56), expressed in E. coli BL21(DE3); [4Fe-4S] cluster regenerated with Fe2+ and L-cysteine; homodimer circa 120 kDa
The experiment in a line: fumarate depletion at […] nm, Michaelis-Menten fit. Format: biochemical. The conditions noted are these: anaerobic, 100 mM EPPS pH 8, 5% glycerol, 0.5 mM DTT, 37 °C; regenerated [4Fe-4S] enzyme.

Another series addresses FumA (Escherichia coli, UniProt P0AC33). Put plainly: fumarate depletion at […] nm, Michaelis-Menten fit. Format: biochemical. The conditions noted are these: anaerobic, 100 mM EPPS pH 8, 5% glycerol, 0.5 mM DTT, 37 °C; regenerated [4Fe-4S] enzyme.
Series [1] deals with the molecule itself. The experiment in a line: SEC; Superdex 200, to estimate the molecular weight of the native enzyme; data not shown.
Substrate in series [2]: O=C(O)C[C@H](O)C(=O)O
Put plainly: purified protein. Particulars: anaerobic, 100 mM EPPS pH 8, 5% glycerol, 0.5 mM DTT, 37 °C, regenerated [4Fe-4S] enzyme.

Substrate in series [3]: O=C(O)C(O)C(O)C(=O)O
Put plainly: purified protein. The conditions noted are these: anaerobic, 100 mM EPPS pH 8, 5% glycerol, 0.5 mM DTT, 100 µM NADH, 1 mM MgCl2, 37 °C, regenerated [4Fe-4S] enzyme.

One may read the Km as the substrate concentration at which the rate is half of its maximum. The stoichiometry N is the number of molecules, sites or subunits per partner or assembly.

Regarding `O=C(O)/C=C/C(=O)O` [fumarate], the Km on FumB worked out at 320 ± 40 µM; at FumA, 460 ± 80 µM.

B1: Fumarase B (FumB) from Escherichia coli (enzyme, E. coli, UniProt P14407 1-548, looked up)
chain: MSNKPFIYQAPFPMGKDNTEYYLLTSDYVSVADFDGETILKVEPEALTLLAQQAFHDASFMLRPAHQKQVAAILHDPEASENDKYVALQFLRNSEIAAKGVLPTCQDTGTAIIVGKKGQRVWTGGGDEETLSKGVYNTYIEDNLRYSQNAALDMYKEVNTGTNLPAQIDLYAVDGDEYKFLCVAKGGGSANKTYLYQETKALLTPGKLKNFLVEKMRTLGTAACPPYHIAFVIGGTSAETNLKTVKLASAHYYDELPTEGNEHGQAFRDVQLEQELLEEAQKLGLGAQFGGKYFAHDIRVIRLPRHGASCPVGMGVSCSADRNIKAKINREGIWIEKLEHNPGQYIPQELRQAGEGEAVKVDLNRPMKEILAQLSQYPVSTRLSLTGTIIVGRDIAHAKLKELIDAGKELPQYIKDHPIYYAGPAKTPAGYPSGSLGPTTAGRMDSYVDLLQSHGGSMIMLAKGNRSQQVTDACHKHGGFYLGSIGGPAAVLAQQSIKHLECVAYPELGMEAIWKIEVEDFPAFILVDDKGNDFFQQIVNKQCANCTK
notes: FumB, class I [4Fe-4S] fumarase of E. coli; the gene from plasmid pGS56 was cloned into pET15b; After nickel column purification the enzyme held [3Fe-4S] clusters in only 10-25% of the protein, the rest being apoprotein; also called fumarate hydratase class I, anaerobic; source: E. coli BL21(DE3), pET15b-FumB, purified (nickel sepharose column)
With B1, the “stoichiometry N” value in series [1] was 2. Further, in the series “purified protein [2]”, the Michaelis constant (Km) turned out to be 300 ± 70 µM, the Vmax result is on record as “(4.9±0.3)·10^2 umol product/minute/mg enzyme” and the kcat/Km entry is on record as “(1.6±0.4)⋅10^6 s^-1 M^-1”. Besides, in “purified protein [3]”, the Km stood at 800 ± 100 µM, the Vmax is 9.2±0.4 umol product/minute/mg enzyme and the kcat/Km result is listed as “(12±2)⋅10^3 s^-1 M^-1”.

B2: FumA (Escherichia coli K-12) (protein)
chain: SNKPFHYQAPFPLKKDDTEYYLLTSEHVSVSEFEGQEILKVAPEALTLLARQAFHDASFMLRPAHQQQVADILRDPEASENDKYVALQFLRNSDIAAKGVLPTCQDTGTAIIVGKKGQRVWTGGGDEAALARGVYNTYIEDNLRYSQNAPLDMYKEVNTGTNLPAQIDLYAVDGDEYKFLCIAKGGGSANKTYLYQETKALLTPGKLKNYLVEKMRTLGTAACPPYHIAFVIGGTSAETNLKTVKLASAKYYDELPTEGNEHGQAFRDVELEKELLIEAQNLGLGAQFGGKYFAHDIRVIRLPRHGASCPVGMGVSCSADRNIKAKINRQGIWIEKLEHNPGKYIPEELRKAGEGEAVRVDLNRPMKEILAQLSQYPVSTRLSLNGTIIVGRDIAHAKLKERMDNGEGLPQYIKDHPIYYAGPAKTPEGYASGSLGPTTAGRMDSYVDQLQAQGGSMIMLAKGNRSQQVTDACKKHGGFYLGSIGGPAAVLAQGSIKSLECVEYPELGMEAIWKIEVEDFPAFILVDDKGNDFFQQIQLTQCTRCVK
For B2, in “purified protein [2]”, the Km turned out to be 700 ± 100 µM, the Vmax entry is given as “(7.2±0.4)·10^2 umol product/minute/mg enzyme” and the kcat/Km result is listed as “(1.0±0.2)⋅10^6 s^-1 M^-1”. In the series “purified protein [3]”, the Km stood at 800 ± 300 µM, the Vmax was 2.3±0.3 umol product/minute/mg enzyme and the kcat/Km entry was “(3±1)⋅10^3 s^-1 M^-1”.
